Laboratory results published in IntAct's records for PubMed 19732766.

B1: U3 small nucleolar RNA-associated protein 4 homolog (Homo sapiens), Q969X6 (parent)
chain: MGEFKVHRVRFFNYVPSGIRCVAYNNQSNRLAVSRTDGTVEIYNLSANYFQEKFFPGHESRATEALCWAEGQRLFSAGLNGEIMEYDLQALNIKYAMDAFGGPIWSMAASPSGSQLLVGCEDGSVKLFQITPDKIQFERNFDRQKSRILSLSWHPSGTHIAAGSIDYISVFDVKSGSAVHKMIVDRQYMGVSKRKCIVWGVAFLSDGTIISVDSAGKVQFWDSATGTLVKSHLIANADVQSIAVADQEDSFVVGTAEGTVFHFQLVPVTSNSSEKQWVRTKPFQHHTHDVRTVAHSPTALISGGTDTHLVFRPLMEKVEVKNYDAALRKITFPHRCLISCSKKRQLLLFQFAHHLELWRLGSTVATGKNGDTLPLSKNADHLLHLKTKGPENIICSCISPCGSWIAYSTVSRFFLYRLNYEHDNISLKRVSKMPAFLRSALQILFSEDSTKLFVASNQGALHIVQLSGGSFKHLHAFQPQSGTVEAMCLLAVSPDGNWLAASGTSAGVHVYNVKQLKLHCTVPAYNFPVTAMAIAPNTNNLVIAHSDQQVFEYSIPDKQYTDWSRTVQKQGFHHLWLQRDTPITHISFHPKRPMHILLHDAYMFCIIDKSLPLPNDKTLLYNPFPPTNESDVIRRRTAHAFKISKIYKPLLFMDLLDERTLVAVERPLDDIIAQLPPPIKKKKFGT

Variants of: B1
Conditions: with zep1_human HIVEP1, P15822

Row | effect of a mutation on the interaction | Variant
1 | decreasing interaction | R565W
